# B1: Wild type hAGT: wild type human O^6-alkylguanine-DNA alkyltransferase (SEQ ID NO:1); GST-hAGT is its GST fusion (protein, listed as Homo sapiens)
# chain: MDKDCEMKRTTLDSPLGKLELSGCEQGLHEIKLLGKGTSAADAVEVPAPAAVLGGPEPLMQCTAWLNAYFHQPEAIEEFPVPALHHPVFQQESFTRQVLWKLLKVVKFGEVISYQQLAALAGNPKAARAVGGAMRGNPVPILIPCHRVVCSSGAVGNYSGGLAVKEWLLAHEGHRLGKPGLGGSSGLAGAWLKGAGATSGSPPAGRN
# Legend:
# [1] = Reaction of two AGT variants in one sample with CPTG and BG-Bt; type: biochemical
# Description: FIG. 2: Western blot of the reaction of wild type hAGT (GST-hAGT fusion protein) and AGTM with the two substrates N^9-cyclopentyl-O^6-bromophenyl-guanine (CPTG) and biotinylated O^6-benzylguanine (BG-Bt, substance 3a of Juillerat et al. 2003) as described in Example 7. BG-Bt is present in all samples at 5 μM. Detection with neutravidin-peroxidase conjugate and luminescent peroxidase substrate detecting any AGT reacted with BG-Bt. Even under simultaneous incubation with identical concentrations of CPTG and BG-Bt only about 5% of GST-hAGT reacts with substrate BG-Bt.
# Within the experiment two tags with different size for the two AGT proteins are used: The His-tagged AGTM (˜20 kDa) and GST-hAGT (cloned and prepared as described in Example 1, but starting with the wild type hAGT gene, ˜48 kDa) are diluted to 0.2 μM and 1.2 μM final concentration, respectively, in reaction buffer containing 50 mM HEPES, 1 mM DTT, 200 mg/mL BSA (pH 7.3). The sample is incubated with a mixture of substrates N^9-cyclopentyl-O^6-bromophenyl-guanine (CPTG; 0, 5 and 10 μM final concentrations) and biotinylated O^6-benzylguanine (BG-Bt, 5 μM final concentration) for 30 minutes. The reaction is quenched by addition of SDS-Laemmli buffer and subjected to Western blotting analysis (Example 1). As the two AGT variants have different masses, the two proteins can be separated on an acrylamide gel and analyzed independently. […] At the same concentration (both substrates at 5 μM final concentration), 95% of GST-hAGT reacts with CPTG, versus only 5% of His-tagged AGTM.
# [2] = Stability after reaction with BG-FL; type: physicochemical; conditions: over 7 days
# Description: Stability before reaction is determined for the mutant AGT or for a mutant AGT fusion protein by incubating purified samples in buffered aqueous solution for up to two weeks at 4° C. and up to six months at −20° C. At several time points, aliquots are taken and concentration of reactive AGT is estimated as described by Juillerat et al., Chem Biol 10:313-317, 2003. Stability for wild type AGT and the AGT mutant after reaction with a labelled substrate and after subsequent separation from unreacted substrate is determined by quantifying the concentration of the label in the soluble fraction over up to two weeks at 4° C. and up to three months at −20° C.
# Stability after reaction: The vector pBAD/H is A (Invitrogen) is modified by cloning synthetic oligonucleotides (SEQ ID NO:29 and SEQ ID NO:30) between the NcoI and HindIII sites to include a 12×His-tag and SbfI and AscI cloning sites. The gene of AGTM is amplified with primers SEQ ID NO:31 and SEQ ID NO:32 and cloned between the SbfI/AscI sites into this vector. Wild type AGT and mutant AGT (Lys125Ala, Ala127Thr, Arg128Ala, Asn157Gly, Ser159Glu) are amplified with primers SEQ ID NO:31 and SEQ ID NO:33 and cloned into this vector. Protein expression is carried out in E. coli strain Top 10. An exponentially growing culture is induced with 0.2% arabinose, and the expression is carried out for 16 hours at 28° C. The cells are lysed by adding buffer to 10 ml/g containing 0.5 M NaCl, 80 mM imidazole, 1% Triton, 250 µM PMSF, 1 mM […]-mercaptoethanol, 5 mg/ml lysozyme, 20 µg/ml DNase and stirring for 45 min. […]
# The AGT proteins at 10 µM) are quantitatively reacted with fluorescein-modified O^6-benzyl-guanine (substance 5 of Juillerat et al, Chem Biol 10:313-317, 2003, BG-FL, 20 µM) and purified over a size exclusion column (Econopac 10 DG, Bio-Rad) and incubated for 7 days. […] The fluorescence of the supernatant is measured with a Victor2 fluorescence plate reader (Perkin Elmer, excitation/emission at 485/535 nm).
# [3] = BG-Cy3 activity assay (reaction rate of AGT mutants); type: biochemical
# Description: Reactivity against DNA-based substrates measured with a BG-Cy3 assay: BG-Cy3 is prepared by reacting the previously described O^6-(4-aminomethyl-benzyl)guanine (Keppler et al., NatureBiotechnol. 21:86-89, 2003) with the commercially available N-hydroxysuccinimide ester of Cy3, (Cy3-NHS, Amersham). The coupling reaction is performed at ambient temperature in N,N-dimethylformamide in the presence of 1 eq. of triethylamine. The BG-Cy3 conjugate is purified by reversed-phase HPLC on a C18-column by using linear gradients from 0.1% trifluoroacetic acid to acetonitrile. After solvent evaporation BG-Cy3 is dissolved in dimethyl sulfoxide and stored at −20° C. For measuring the reactivity with DNA-based substrates, a reaction mixture containing different concentrations (0 to 5 µM) of oligonucleotide SEQ ID NO:2 (modified in position 14), GST-AGT fusion protein at 0.2 µM and BG-Cy3 at […] in reaction buffer (50 mM HEPES, pH 7.2, 1 mM DTT, 200 mg/ml BSA) is incubated in microtiterplates. Fluorescence of the Cy3 derivative (excitation 519 nm, emission at 572 nm) is measured on a Spectramax Gemini plate reader (Molecular Devices).
# The amplified products are cloned in fusion to the g3 gene of filamentous phage in the vector pAK100 via SfiI restriction sites. The resulting gene libraries are used for phage display as described under Example 4. The mutants of the libraries are selected with 5 to 50 nM of BG-Bt for 10 min. Selected mutants are subcloned into pGEX using the primers SEQ ID NO:3 and SEQ ID NO:13. The reaction rate of mutant AGTs is determined as described in Example 6, Reactivity against DNA-based substrates (BG-Cy3 assay).
# For the activity assay purified GST fusion proteins were used for mutants marked with “p.” (prepared as described under Example 1); periplasmic extracts were used for mutants marked with “x.” (prepared as described under Example 2).
Molecule,specificity of CPTG towards GST-hAGT ([1]; versus His-tagged AGTM),loss of soluble fluorescent protein [2],kobs ([3]; BG-Cy3 activity assay) [M⁻¹ s⁻¹],"Relative reaction rate ([3]; divided by value for wild type hAGT, purified GST fusion proteins (p.))","fraction of protein reacting with CPTG ([1]; CPTG and BG-Bt both at 5 μM, 30 minutes) [%]",fraction of protein reacting with BG-Bt ([1]; simultaneous incubation with identical concentrations of CPTG and BG-Bt)
"Nc1nc(OCc2cc(Br)cs2)c2ncn(C3CCCC3)c2n1 [CPTG, reference compound]",high specificity,,,,,
B1,,about 60%,116,1,95,about 5%

# Source: US7888090B2, “Mutants of O6-alkylguanine-DNA alkyltransferase” (Ecole Polytechnique Federale de Lausanne, priority 2004, dated 2011)
